Reference: patent US20250002610A1 (Genmab, published 2025)
Substitutions are numbered along the chain they refer to.

B1: BisG1-FAPα-FERL/DR4-FERR (bispecific antibody, human IgG1, kappa, lambda)
heavy 1: EVQLLESGGGLVQPGGSPRLSCEASGFTFSSYALSWVRQAPGKGLEWVSAISGSGGGRYYADSVKGRFTISRDNSKNTLFLQMNSLRAEDTAVYYCAKEGYSSSGTYWDHWGQGTLVTVSSASTKGPSVFPLAPSSKSTSGGTAALGCLVKDYFPEPVTVSWNSGALTSGVHTFPAVLQSSGLYSLSSVVTVPSSSLGTQTYICNVNHKPSNTKVDKRVEPKSCDKTHTCPPCPAPEFERGPSVFLFPPKPKDTLMISRTPEVTCVVVDVSHEDPEVKFNWYVDGVEVHNAKTKPREEQYNSTYRVVSVLTVLHQDWLNGKEYKCKVSNKALPAPIEKTISKAKGQPREPQVYTLPPSREEMTKNQVSLTCLVKGFYPSDIAVEWESNGQPENNYKTTPPVLDSDGSFLLYSKLTVDKSRWQQGNVFSCSVMHEALHNHYTQKSLSLSPG
light 1: AIQMTQSPSSVSASVGDRVTITCRASQGVSSWLAWYQQKPGRAPKLLIYVASTLQSGVPSRFSGSGSGTDFTLTINSLQPEDFATYYCQQANSFPPTFGQGTRLEMKRTVAAPSVFIFPPSDEQLKSGTASVVCLLNNFYPREAKVQWKVDNALQSGNSQESVTEQDSKDSTYSLSSTLTLSKADYEKHKVYACEVTHQGLSSPVTKSFNRGEC
heavy 2: QVQLQESGPGLVKPSGTLSLTCAVSGGSISSYSWWSWIRQPPGKGLEWIGELYHSGSTNYNPSLKSRVTISVDKSKNQFSLKLRSVTAADTAVYYCVRGVATIDYWGQGTLVTVSSASTKGPSVFPLAPSSKSTSGGTAALGCLVKDYFPEPVTVSWNSGALTSGVHTFPAVLQSSGLYSLSSVVTVPSSSLGTQTYICNVNHKPSNTKVDKRVEPKSCDKTHTCPPCPAPEFERGPSVFLFPPKPKDTLMISRTPEVTCVVVDVSHEDPEVKFNWYVDGVEVHNAKTKPREEQYNSTYRVVSVLTVLHQDWLNGKEYKCKVSNKALPAPIEKTISKAKGQPREPQVYTLPPSREEMTKNQVSLTCLVKGFYPSDIAVEWESNGQPENNYKTTPPVLDSDGSFFLYSRLTVDKSRWQQGNVFSCSVMHEALHNHYTQKSLSLSPG
light 2: QSALTQPPSASGSPGQSVTISCTGTSSDVGGYNFVSWYQQDPGKAPKLLIYEVTKRPSGVPDRFSGSKSGNTASLTVSGLQAEDEADYYCSSYAGSNNVMFGGGTKLTVLGQPKAAPSVTLFPPSSEELQANKATLVCLISDFYPGAVTVAWKADSSPVKAGVETTTPSKQSNNKYAASSYLSLTPEQWKSHRSYSCQVTHEGSTVEKTVAPTECS
notes: Human IgG1 bispecific made by controlled Fab-arm exchange of IgG1-FAPα-FERL and IgG1-DR4-FERR; monovalent for FAPα and for DR4; also called GEN1057
B2: IgG1-FAPα-FERL (antibody)
heavy: B1 heavy 1
light: B1 light 1
notes: Bivalent monoclonal IgG1 kappa
B3: BisG1-FAPα-FEAL/b12-FEAR (bispecific antibody, human IgG1, kappa)
heavy 1: B1 heavy 1 with R240G, D269A
light 1: B1 light 1
heavy 2: QVQLVQSGAEVKKPGASVKVSCQASGYRFSNFVIHWVRQAPGQRFEWMGWINPYNGNKEFSAKFQDRVTFTADTSANTAYMELRSLRSADTAVYYCARVGPYSWDDSPQDNYYMDVWGKGTTVIVSSASTKGPSVFPLAPSSKSTSGGTAALGCLVKDYFPEPVTVSWNSGALTSGVHTFPAVLQSSGLYSLSSVVTVPSSSLGTQTYICNVNHKPSNTKVDKRVEPKSCDKTHTCPPCPAPEFEGGPSVFLFPPKPKDTLMISRTPEVTCVVVAVSHEDPEVKFNWYVDGVEVHNAKTKPREEQYNSTYRVVSVLTVLHQDWLNGKEYKCKVSNKALPAPIEKTISKAKGQPREPQVYTLPPSREEMTKNQVSLTCLVKGFYPSDIAVEWESNGQPENNYKTTPPVLDSDGSFFLYSRLTVDKSRWQQGNVFSCSVMHEALHNHYTQKSLSLSPG
light 2: EIVLTQSPGTLSLSPGERATFSCRSSHSIRSRRVAWYQHKPGQAPRLVIHGVSNRASGISDRFSGSGSGTDFTLTITRVEPEDFALYYCQVYGASSYTFGQGTKLERKRTVAAPSVFIFPPSDEQLKSGTASVVCLLNNFYPREAKVQWKVDNALQSGNSQESVTEQDSKDSTYSLSSTLTLSKADYEKHKVYACEVTHQGLSSPVTKSFNRGEC
notes: Fab-arm exchange of IgG1-FAPα-FEAL and IgG1-b12-FEAR

target: T1, cynomolgus monkey FAPα on Expi293F cells (cynomolgus monkey (Macaca fascicularis), UniProt Q12884 1-760 (human entry)); test: flow cytometry, Expi293F cells expressing cynomolgus monkey FAPα, average ± SEM
T1 sequence: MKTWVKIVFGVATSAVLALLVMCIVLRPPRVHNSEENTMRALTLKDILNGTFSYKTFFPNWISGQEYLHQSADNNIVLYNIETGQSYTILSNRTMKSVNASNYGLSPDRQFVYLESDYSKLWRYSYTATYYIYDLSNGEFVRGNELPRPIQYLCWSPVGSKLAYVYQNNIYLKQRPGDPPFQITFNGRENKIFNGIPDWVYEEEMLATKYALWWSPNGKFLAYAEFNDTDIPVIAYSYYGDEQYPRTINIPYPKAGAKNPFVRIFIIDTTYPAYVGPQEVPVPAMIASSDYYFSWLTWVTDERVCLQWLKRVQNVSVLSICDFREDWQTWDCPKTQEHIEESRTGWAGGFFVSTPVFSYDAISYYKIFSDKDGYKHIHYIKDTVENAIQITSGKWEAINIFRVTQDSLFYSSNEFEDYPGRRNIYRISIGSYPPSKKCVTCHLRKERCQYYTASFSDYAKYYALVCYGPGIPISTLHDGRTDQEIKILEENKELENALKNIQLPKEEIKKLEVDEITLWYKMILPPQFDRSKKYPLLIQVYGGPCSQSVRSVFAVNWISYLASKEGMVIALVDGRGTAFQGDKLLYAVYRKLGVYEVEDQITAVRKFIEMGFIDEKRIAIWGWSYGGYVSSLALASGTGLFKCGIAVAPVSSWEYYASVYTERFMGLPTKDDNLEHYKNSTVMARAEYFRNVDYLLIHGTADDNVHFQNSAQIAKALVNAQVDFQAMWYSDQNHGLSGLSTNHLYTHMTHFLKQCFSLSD
Description: Binding of BisG1-FAPα-FERL/DR4-FERR, BisG1-FAPα-FEAL/b12-FEAR and IgG1-FAPα-FERL to FAPα of species commonly used for nonclinical toxicology studies was assessed by flow cytometry using Expi293F cells transiently expressing FAPα from different animal species. IgG1-b12 was included as negative control.
Expi293F cells expressing recombinant FAPα from various species (human, cynomolgus monkey, dog, pig, rat or mouse) were seeded (20,000 cells/well) in 96-Well round bottom plates (Greiner Bio-one, Cat #650101). Antibody dilutions were prepared using FACS buffer, consisting of PBS (Capricorn Scientific, Cat #PBS-10XA, diluted to 1×PBS in distilled water)+1% BSA (Roche, Cat #10735086001)+0.02% Sodium Azide (Bio-World, Cat #41920044-3). Plates were centrifuged, supernatant was removed, and cells were resuspended in 100 μL of antibody dilutions (concentration range 30-0.00017 μg/mL with three-fold serial dilutions using FACS buffer) of BisG1-FAPα-FERL/DR4-FERR, BisG1-FAPα-FEAL/b12-FEAR, IgG1-FAPα-FERL and IgG1-b12 and incubated for 30 min at 4° C. […] After 30 min incubation at 4° C., cells were washed with FACS buffer and resuspended in FACS buffer supplemented with TO-PRO-3 Iodide viability marker (Invitrogen, Cat #T3605, diluted 1:4,000). Antibody binding to viable cells (gMFI of PE on TO-PRO-3 negative cells) was analyzed by flow cytometry on a FACS Celesta and FACS_Diva software (first two experiments) or iQue® 3 and FlowJo software (last experiment). gMFI was determined and visualized using GraphPad Prism. Binding curves were analyzed using nonlinear regression analysis. The concentration (pg/mL) at which 50% of the maximal effect was observed (EC₅₀) was derived from the fitted curves.

Point of comparison: B1, EC50 0.25 µg/mL. Against it:
- B2 — 2.5-fold lower, 0.1 µg/mL
- B3 — within 1.5-fold, 0.19 µg/mL
